The text below walks through data of article PMC7683268.

This assay deals with N-terminally MBP-fused and C-terminally mCherry-fused C-terminal intracellular region of Lrp5 (zebrafish). The assay is described as follows: bead binding assay read by EGFP fluorescence microscopy.

For “N-terminally GST-fused and C-terminally EGFP-fused RBP1a (natural protein)”, the EGFP signal on beads is 5.3.
